Assay results from patent US20190315842A1 (DUKE UNIVERSITY, published 2019).
Where no end group is shown, it is not given here. The star is where a group is joined. Biotin = O=C1N[C@H]2[C@H](CS[C@H]2CCCCC(=O)*)N1

How the values were obtained:
[1] = molecular target: T1, GPPPPIDNGDITSFP(GGGK-biotin); assay: ELISA: biotinylated peptide captured on immobilized Neutravidin, antibody at 0.5 µg/ml, anti-human IgG-HRP/ABTS, OD 405 nm
T1 construct: also called biotinylated 15-mer peptide; biotinylated 19-mer
T1 peptide: GPPPPIDNGDITSFPGGGK(Biotin)

[2] = molecular target: systemic lupus erythematosus autoantigen SSA; assay: AtheNA Multi-Lyte ANA, Ab at 25 ug/ml
[3] = molecular target: T2, Sm (sphingomyelin); assay: AtheNA Multi-Lyte ANA, Ab at 25 ug/ml
T2 construct: in an ANA panel of nuclear antigens Sm is usually the Smith ribonucleoprotein antigen; Kept, but see recheck

[4] = molecular target: ribonucleoprotein (RNP); assay: AtheNA Multi-Lyte ANA, Ab at 25 ug/ml
[5] = molecular target: T3, sclerosis autoantigen (Scl-70) (UniProt P11387 2-765, limits assumed); assay: AtheNA Multi-Lyte ANA, Ab at 25 ug/ml
T3 sequence (looked up): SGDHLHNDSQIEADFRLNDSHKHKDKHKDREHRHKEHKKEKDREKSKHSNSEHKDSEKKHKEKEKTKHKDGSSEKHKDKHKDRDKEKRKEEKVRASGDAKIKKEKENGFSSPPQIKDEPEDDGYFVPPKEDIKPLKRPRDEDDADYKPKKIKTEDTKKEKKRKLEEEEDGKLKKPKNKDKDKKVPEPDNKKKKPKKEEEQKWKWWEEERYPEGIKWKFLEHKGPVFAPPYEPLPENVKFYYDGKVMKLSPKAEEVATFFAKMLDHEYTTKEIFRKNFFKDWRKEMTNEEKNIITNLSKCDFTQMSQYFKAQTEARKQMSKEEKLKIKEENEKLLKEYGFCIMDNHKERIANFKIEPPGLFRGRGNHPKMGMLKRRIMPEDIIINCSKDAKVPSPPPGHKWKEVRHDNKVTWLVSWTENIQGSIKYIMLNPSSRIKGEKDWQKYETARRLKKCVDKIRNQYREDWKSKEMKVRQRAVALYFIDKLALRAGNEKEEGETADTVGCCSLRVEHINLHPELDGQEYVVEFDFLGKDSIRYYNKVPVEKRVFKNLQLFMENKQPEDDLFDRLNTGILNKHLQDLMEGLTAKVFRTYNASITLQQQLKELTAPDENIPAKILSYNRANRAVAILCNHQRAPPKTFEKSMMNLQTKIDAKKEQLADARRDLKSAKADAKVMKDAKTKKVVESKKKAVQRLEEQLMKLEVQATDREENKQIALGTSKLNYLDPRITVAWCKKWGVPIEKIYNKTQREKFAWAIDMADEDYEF

[6] = molecular target: systemic lupus erythematosus autoantigen SSA; assay: AtheNA Multi-Lyte ANA, Ab at 50 ug/ml;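 further: monoclonal antibodies probed against a nuclear autoantigen panel (SSA, SSB, Sm, RNP, Scl-70, Jo-1, dsDNA, CentB, histones), with anti-HIV 4E10 and palivizumab as control antibodies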
[7] = molecular target: T2, Sm (sphingomyelin); assay: AtheNA Multi-Lyte ANA, Ab at 50 ug/ml;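 further: monoclonal antibodies probed against a nuclear autoantigen panel (SSA, SSB, Sm, RNP, Scl-70, Jo-1, dsDNA, CentB, histones), with anti-HIV 4E10 and palivizumab as control antibodies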
[8] = molecular target: ribonucleoprotein (RNP); assay: AtheNA Multi-Lyte ANA, Ab at 50 ug/ml;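 further: monoclonal antibodies probed against a nuclear autoantigen panel (SSA, SSB, Sm, RNP, Scl-70, Jo-1, dsDNA, CentB, histones), with anti-HIV 4E10 and palivizumab as control antibodies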
[9] = molecular target: T3, sclerosis autoantigen (Scl-70); assay: AtheNA Multi-Lyte ANA, Ab at 50 ug/ml;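 further: monoclonal antibodies probed against a nuclear autoantigen panel (SSA, SSB, Sm, RNP, Scl-70, Jo-1, dsDNA, CentB, histones), with anti-HIV 4E10 and palivizumab as control antibodies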
[10] = molecular target: systemic lupus erythematosus autoantigen SSA; assay: AtheNA Multi-Lyte ANA, Ab at 12.5 ug/ml;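 further: monoclonal antibodies screened for binding to a panel of nuclear autoantigens (SSA, SSB, Sm, RNP, Scl-70, Jo-1, dsDNA, CentB, histones), with anti-HIV and anti-RSV antibodies as controls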
[11] = molecular target: T2, Sm (sphingomyelin); assay: AtheNA Multi-Lyte ANA, Ab at 12.5 ug/ml;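 further: monoclonal antibodies screened for binding to a panel of nuclear autoantigens (SSA, SSB, Sm, RNP, Scl-70, Jo-1, dsDNA, CentB, histones), with anti-HIV and anti-RSV antibodies as controls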
[12] = molecular target: ribonucleoprotein (RNP); assay: AtheNA Multi-Lyte ANA, Ab at 12.5 ug/ml;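 further: monoclonal antibodies screened for binding to a panel of nuclear autoantigens (SSA, SSB, Sm, RNP, Scl-70, Jo-1, dsDNA, CentB, histones), with anti-HIV and anti-RSV antibodies as controls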
[13] = molecular target: T3, sclerosis autoantigen (Scl-70); assay: AtheNA Multi-Lyte ANA, Ab at 12.5 ug/ml;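 further: monoclonal antibodies screened for binding to a panel of nuclear autoantigens (SSA, SSB, Sm, RNP, Scl-70, Jo-1, dsDNA, CentB, histones), with anti-HIV and anti-RSV antibodies as controls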
[14] = molecular target: systemic lupus erythematosus autoantigen SSA; assay: AtheNA Multi-Lyte ANA, Ab at 6.25 ug/ml;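 further: monoclonal antibodies screened for reactivity against a panel of nuclear autoantigens, with an anti-HIV and an anti-RSV monoclonal antibody serving as controls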
[15] = molecular target: T2, Sm (sphingomyelin); assay: AtheNA Multi-Lyte ANA, Ab at 6.25 ug/ml;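 further: monoclonal antibodies screened for reactivity against a panel of nuclear autoantigens, with an anti-HIV and an anti-RSV monoclonal antibody serving as controls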
[16] = molecular target: ribonucleoprotein (RNP); assay: AtheNA Multi-Lyte ANA, Ab at 6.25 ug/ml;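 further: monoclonal antibodies screened for reactivity against a panel of nuclear autoantigens, with an anti-HIV and an anti-RSV monoclonal antibody serving as controls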
[17] = molecular target: T3, sclerosis autoantigen (Scl-70); assay: AtheNA Multi-Lyte ANA, Ab at 6.25 ug/ml;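 further: monoclonal antibodies screened for reactivity against a panel of nuclear autoantigens, with an anti-HIV and an anti-RSV monoclonal antibody serving as controls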
[18] = molecular target: T4, 15-mer peptide GPPPPIDNGDITSFP (SEQ ID NO: 114) (human); assay: assay and antigen not given; Example 10, epitope mapping on the 15-mer peptide
T4 construct: Immobilized for SPR; also called parent peptide
T4 peptide: GPPPPIDNGDITSFP

[19] = molecular target: T5, reduced form of Complement Factor H (CFH), treated with TCEP (human, UniProt P08603 19-1231, disulfides reduced with 10 mM TCEP); assay: immunoblot, SDS-PAGE under reducing conditions, antibody at 0.5 µg/ml, anti-human IgG-HRP, chemiluminescence; lane numbers as in Table 10
T5 construct: also called reduced CFH; reduced form of CFH

[20] = molecular target: T6, Complement Factor H (CFH) protein, full-length (human, UniProt P08603 19-1231); assay: immunoblot, SDS-PAGE under non-reducing conditions, antibody at 0.5 µg/ml, anti-human IgG-HRP, chemiluminescence; lane numbers as in Table 10
T6 construct: also called full-length CFH; native CFH
T6 sequence (P08603 19-1231 limits assumed): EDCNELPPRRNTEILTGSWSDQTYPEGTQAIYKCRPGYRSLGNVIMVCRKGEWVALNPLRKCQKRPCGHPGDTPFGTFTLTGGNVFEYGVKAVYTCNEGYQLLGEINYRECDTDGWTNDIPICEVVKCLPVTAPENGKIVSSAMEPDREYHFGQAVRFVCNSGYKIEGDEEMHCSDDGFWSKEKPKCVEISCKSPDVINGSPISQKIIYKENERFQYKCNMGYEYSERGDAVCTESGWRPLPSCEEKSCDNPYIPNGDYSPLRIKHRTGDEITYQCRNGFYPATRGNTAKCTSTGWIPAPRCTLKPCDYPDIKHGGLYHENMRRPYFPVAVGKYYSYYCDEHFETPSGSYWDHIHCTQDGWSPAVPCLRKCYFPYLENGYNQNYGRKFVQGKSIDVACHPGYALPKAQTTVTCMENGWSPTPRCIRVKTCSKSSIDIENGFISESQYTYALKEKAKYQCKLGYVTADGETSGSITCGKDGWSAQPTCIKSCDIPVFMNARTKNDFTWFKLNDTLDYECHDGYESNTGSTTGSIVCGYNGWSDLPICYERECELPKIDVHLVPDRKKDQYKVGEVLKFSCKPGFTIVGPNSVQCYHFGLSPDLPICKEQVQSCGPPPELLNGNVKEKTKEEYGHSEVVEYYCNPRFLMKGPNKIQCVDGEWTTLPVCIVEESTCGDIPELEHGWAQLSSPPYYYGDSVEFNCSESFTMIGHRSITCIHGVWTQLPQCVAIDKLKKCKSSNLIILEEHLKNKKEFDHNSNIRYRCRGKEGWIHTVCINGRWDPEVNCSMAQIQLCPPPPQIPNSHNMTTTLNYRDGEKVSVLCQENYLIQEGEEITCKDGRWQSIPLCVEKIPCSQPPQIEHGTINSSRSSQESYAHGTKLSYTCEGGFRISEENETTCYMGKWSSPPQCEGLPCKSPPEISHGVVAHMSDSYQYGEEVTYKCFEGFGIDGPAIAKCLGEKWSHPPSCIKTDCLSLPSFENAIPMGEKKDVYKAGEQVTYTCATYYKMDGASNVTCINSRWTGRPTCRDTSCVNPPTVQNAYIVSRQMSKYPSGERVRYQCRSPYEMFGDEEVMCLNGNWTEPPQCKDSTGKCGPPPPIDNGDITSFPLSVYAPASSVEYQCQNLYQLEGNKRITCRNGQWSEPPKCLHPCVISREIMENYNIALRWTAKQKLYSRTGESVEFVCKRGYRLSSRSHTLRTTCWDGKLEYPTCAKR

T5 sequence (P08603 19-1231 limits assumed): as above

B1: 7958/5992 (antibody, V domains shown)
VH: LVESGGGVVPPGKSLRLSCAASGFTFSLYGIHWVRQAPGKGLEWVAVISYDGNTKYYTDSVKGRFTISRDNAKNTIYLQMNSLRLDDTAVYYCAKGAANSATFDFWGRGTMVTVSS
VL: MTQSPDSLTLSLGERATINCRSSRTVLYRSNNKNYLAWYQHKPGQPPKLLMSWASTRETGVPDRFSGSGSGTHFTLTITSLQPEDVAVYYCQQYYSPPWTFGQGTKVEIR
notes: also called clone 4; H007958/K005992
binding result [1]: binds

B2: 7963/5998 (antibody, V domains shown)
VH: LVESGGGVVPPGKSLRLSCAASGFTFSLYGIHWVRQAPGKGLEWVAVISYDGNTKYYTDSVKGRFTISRDNAKNTIYLQMNSLRLDDTAVYYCAKGAANSATFDFWGRGTMVTVSS
VL: MTQSPDSLTLSLGERATINCRSSRTVLYRSNNKNYLAWYQHKPGQPPKLLMSWASTRETGVPDRFSGSGSGTHFTLTITSLQPEDVAVYYCQQYYSPPWTFGQGTKVEIR
notes: also called clone 5; H007963/K005998
binding result [1]: binds

B3: 7982/6018 (antibody, V domains shown)
VH: LVESGGGVVPPGKSLRLSCAASGFTFSLYGIHWVRQAPGKGLEWVAVISYDGNTKYYTDSVKGRFTISRDNAKNTIYLQMNSLRLDDTAVYYCAKGAANSATFDFWGRGTMVTVSS
VL: MTQSPDSLTLSLGERATINCRSSRTVLYRSNNKNYLAWYQHKPGQPPKLLMSWASTRETGVPDRFSGSGSGTHFTLTITSLQPEDVAVYYCQQYYSPPWTFGQGTKVEIR
notes: also called clone 6; H007982/K006018
binding result [1]: binds

B4: Ab7961/293i (antibody, IgG1, V domains shown)
VH: LVESGGGVVQPGKSLRLSCVASGFTFSSYGMHWVRQAPGKGLEWVAVMSFDGKTKYYADSVKGRFTISRDNPKNTLYLQMNSLRSEDTAVYYCAKGGAAAAVFDSWGQGILLTVSS
VL: MTQSPNSLAVSLGGRATINCKTSQSILYRSNNKNYLAWYQHKSGQPPKLLIYWASTRESGVPDRFSGSGSRTDFTLTISGLQAEDVAVYYCQQYYNPPWTFGQGTKVEIK
notes: Recombinant human antibody with IgG1 heavy chain backbone and kappa light chain constant; they begin at LVESGGG and MTQSP; also called mAb 7961; clone 24
AtheNA signal [2]: 31 | AtheNA signal [3]: 5 | AtheNA signal [4]: 8 | AtheNA signal [5]: 3 | AtheNA signal [6]: 40 | AtheNA signal [7]: 6 | AtheNA signal [8]: 8 | AtheNA signal [9]: 3 | AtheNA signal [10]: 24 | AtheNA signal [11]: 5 | AtheNA signal [12]: 6 | AtheNA signal [13]: 3 | AtheNA signal [14]: 18 | AtheNA signal [15]: 4 | AtheNA signal [16]: 7 | AtheNA signal [17]: 2 | EC50 [18]: 0.0144 µg/mL | binding result [1]: binds | binding result [19]: binds | binding result [20]: binds

B5: 7965/6000 (antibody, V domains shown)
VH: LVESGGGVVQPGKSLRLSCVASGFTFSSYGMHWVRQAPGKGLEWVAVMSFDGKTKYYADSVKGRFTISRDNPKNTLYLQMNSLRSEDTAVYYCAKGGAAAAVFDSWGQGILLTVSS
VL: MTQSPNSLAVSLGGRATINCKTSQSILYRSNNKNYLAWYQHKSGQPPKLLIYWASTRESGVPDRFSGSGSRTDFTLTISGLQAEDVAVYYCQQYYNPPWTFGQGTKVEIK
notes: also called clone 12; H007965/K006000
binding result [1]: binds

B6: 7967/6002 (antibody, V domains shown)
VH: LVESGGGVVQPGKSLRLSCVASGFSFSTYGMHWVRQAPGKGLEWVAVMSFDGKTKYYADSVKGRFTISRDNPKNTLYLQMNSLRSEDTAVYYCAKGGAAAAVFDSWGPGILLTVSS
VL: MTQSPNSLAVSLGGRATINCKASQSILYRSNNKNYLAWYQHKAGQPPKLLIYWASTRESGVPERFSGSGSRTDFTLTINGLQAEDVAVYYCQQYYNPPWTFGQGTKVEIK
notes: also called clone 8; H007967/K006002
binding result [1]: binds

B7: Ab7964 (antibody, IgG1, V domains shown)
VH: LVESGGGVVQPGRSLRLSCAASGVTFSRYGMHWVRQAPGKGLEWVAVISYDEKTKYYADSVKGRFTISRDNSKNTLFLHMNRLRYEDTAVYYCAKGASSGAYFDYWGQGTLVTVSS
VL: not shown
notes: Recombinant human antibody with IgG1 heavy chain backbone and kappa light chain constant; they begin at LVESGGG and MTQSP; also called Ab7964/293i; mAb 7964
AtheNA signal [2]: 168 | AtheNA signal [3]: 96 | AtheNA signal [4]: 56 | AtheNA signal [6]: 162 | AtheNA signal [7]: 137 | AtheNA signal [8]: 62 | AtheNA signal [10]: 132 | AtheNA signal [11]: 67 | AtheNA signal [12]: 51 | AtheNA signal [14]: 101 | AtheNA signal [15]: 47 | AtheNA signal [16]: 44 | EC50 [18]: 0.0152 µg/mL | binding result [1]: binds | binding result [19]: binds | binding result [20]: binds

B8: 7971/6005 (antibody, V domains shown)
VH: LVESGGGVVQPGRSLRLSCAASGFTFSRYGMHWVRQAPGKGLEWVAVMSYDGSTKYYADSVKGRFAISRDNPKNTLFLQMNSLRPDDTAVYYCAKGGAAAAVMDVWGKGTTVTVSS
VL: MTQSPDSLTVSLGERATISCKSSQRLLYSSNNKNYLAWYQQKPGQPPKLLMYWASTRESGVPDRFSGSGSGTDFSLTISSLQAEDVAVYYCQQYYNPPWTFGQGTKVEVK
notes: also called clone 14; H007971/K006005
binding result [1]: binds

B9: Ab7955 (antibody, V domains shown)
VH: LVESGGGVVRPGRSLRLSCVASGFTFNAYGMHWVRQGPGKGLEWLAVISYEGKTVYYADSVKDRFTISRDNSRNTVSLHLNNLRGEDTAVYYCAKGSASAAVLQHWGQGTLVSVTS
VL: MTQSPGSLAVSLGSRATINCKSSRSLLYRSNNKNYLAWYQQKPGQSPRLLIYWASSRESGVPDRFSGGGSGTSFTLTISSLQAEDVAVYYCQQYFNPPWTFGQGTKVEIK
notes: Recombinant human antibody with IgG1 heavy chain backbone and kappa light chain constant; also called mAb 7955; clone 19
AtheNA signal [6]: 92 | AtheNA signal [7]: 10 | AtheNA signal [8]: 13 | AtheNA signal [10]: 56 | AtheNA signal [11]: 7 | AtheNA signal [12]: 8 | AtheNA signal [14]: 32 | AtheNA signal [15]: 5 | AtheNA signal [16]: 4 | EC50 [18]: 0.00648 µg/mL | binding result [1]: binds

B10: 7983/6019 (antibody, V domains shown)
VH: EVQLVESGGGVVQPGRSLRLSCAASGFTFNRFGMHWVRQRQVPGKGLEWVAVISYDDNTKYYADSVKGRFTISRDNNKSTLYLQMSSLRVEDTAVYFCAKGSTAAAVLDYWGQGTLVTVSS
VL: DIVMTQSPDSLTLSLGERATINCKSSQSLFYRSNNKSYLAWYQQKPGQPPKLLIYWASVRESGVPDRFTGSGSVTDFTLTISSLRAEDVAVYYCQQYFTTPLTFGGGTKVAIK
notes: also called clone 15; H007983/K006019
binding result [1]: binds
